In publication PMC6785131:

Substrate: N[C@@H](CS)C(=O)O
Test: purified protein
Type: biochemical, Salmonella enterica
Settings: 2 mM ATP, 2 mM PPi, 10 mM MgCl2, 30 mM KCl, 100 mM HEPES pH 7.5, 37 °C, 25 nM enzyme, 50 μM-2 mM Cys

B1: CysRS^chr (Salmonella enterica subsp. enterica serovar Typhimurium str. LT2) (protein)
chain: MLKIFNTLTRQKEEFKPIHAGEVGMYVCGITVYDLCHIGHGRTFVAFDVVARYLRFLGYKLKYVRNITDIDDKIIKRANENGESFVALVDRMIAEMHQDFDALNILRPDSEPRATHHIQEIIELTRTLIEKGHAYVADNGDVMFDVPTDPTYGQLSRQDLEQLQAGARVDVVDVKRNPMDFVLWKMSKEGEPSWPSPWGEGRPGWHIECSAMNCKQLGNHFDIHGGGSDLMFPHHENEIAQSTCAHDGEYVNYWMHSGMVMVDREKMSKSLGNFFTVRDVLKYYDAETVRYFLMSGHYRSQLNYSEENLKQARASLERLYTALRGTDKSAAPAGGEAFEARFVEAMNDDFNTPEAYSVLFDMAREVNRLKGEDMTAANAMASHLRKISGVLGLLEQEPDVFLQSGAQADDGEVAEIEALIQQRLDARKAKDWAAADAARDRLAEMGIILEDGPQGTTWRRK
notes: tag removal not mentioned
For B1, the Km was 14 ± 3 µM and the kcat was 1.1 ± 0.2 s⁻¹.
